Results from paper PMC8644300.

Key:
[1] = target: recombinant KEA3 C-terminus (Arabidopsis thaliana); assay: native gel or EMSA; native gel electrophoresis (without SDS) of the SEC fraction with the KEA3 C-terminus, in phosphate-buffered saline pH 8
[2] = target: recombinant KEA3 C-terminus (Arabidopsis thaliana); assay: SEC; Superdex 200 Increase 10/300 GL, calibrated with low and high molecular weight kits; Ni-NTA eluate treated with 2 mM EDTA to remove residual Ni2+ before the run
[3] = target: K+ exchange antiporter 3 (KEA3), native KEA3.2 isoform (Arabidopsis thaliana (endogenous in Col-0)) (UniProt Q9M0Z3); assay: native gel or EMSA; Blue Native PAGE of thylakoid membranes solubilized with 0.7% β-DM, blotted and detected with the antibody against the KEA3 C-terminus; native protein marker for size

stoichiometry N [1] | stoichiometry N [2] | stoichiometry N [3] | Substance
2 | 2 | – | recombinant KEA3 C-terminus (domain or fragment)
– | – | 2 | K+ exchange antiporter 3 (KEA3), native KEA3.2 isoform (from UniProt Q9M0Z3-1 73-776) (natural protein)
